Positions of bridges follow the written chain, without caps; N, C: chain ends. Residues, ends and D or L forms follow the SMILES beside them. No end group written: not given here.
Tests used:
[1] = molecular target: T1, LRP6 E1 (Homo sapiens, UniProt O75581); assay: Synthetic peptide competition binding to LRP6 E1; conditions: synthetic peptides
T1 construct: construct E1-amino acids A20-D325 of LPR6; made in house; host or cells: Tni insect cells (baculovirus, secreted)
T1 sequence (O75581 20-325): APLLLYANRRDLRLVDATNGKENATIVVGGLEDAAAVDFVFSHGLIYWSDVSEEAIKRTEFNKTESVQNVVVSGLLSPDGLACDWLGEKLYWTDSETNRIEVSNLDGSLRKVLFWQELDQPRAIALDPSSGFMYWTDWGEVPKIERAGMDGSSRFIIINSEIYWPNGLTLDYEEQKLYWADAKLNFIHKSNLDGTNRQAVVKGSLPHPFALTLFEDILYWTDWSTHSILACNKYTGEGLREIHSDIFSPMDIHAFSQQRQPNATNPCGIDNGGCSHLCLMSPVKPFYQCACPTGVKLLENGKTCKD
Description: Alternatively, affinities were determined by fluorescence polarization (FP). A fluorescein-modified peptide probe (30 nM) was mixed with LRP5 or LRP6 E1 domain at a concentration suitable for the affinity of the particular target-probe combination (approximately Kd). Competing test agent (protein or peptide) was then added and FP monitored as a function of concentration of the test agent Inhibition constants were obtained by fitting the resulting curves to standard equations using the program KaleidaGraph (Synergy Software).
Peptide affinities were also determined by competition with phage displaying a binding peptide (competition phage ELISA). Serial dilutions of test peptide were mixed with an appropriate (non-saturating) concentration of phage before exposing the mixture to target and allowing it to reach equilibrium. After washing to remove unbound material, bound phage were detected by incubation with anti-M13 antibody-horseradish peroxidase (HRP) conjugate and exposure to a suitable colorometric HRP substrate.
Finally, peptide affinities were also determined by competition ELISA. Maxi-Sorb plates (Nunc) were coated with streptavidin or NeutrAvidin (5 μg/mL in phosphate-buffered saline (PBS); overnight, 4° C.) then blocked with 0.2% bovine serum albumin (BSA) in PBS (1 h, room temperature). A solution (500 nM in PBS) of biotinylated E1-binding peptide Ac-[…](biotin)-am (disulfide) was added to each well for 30 min, and the wells were then washed 3× with PBS containing 0.05% Tween-20 to remove excess peptide. His-tagged E1 domain or FLAG-tagged E1E2 protein (5-10 nM final concentration) was preincubated for 15 minutes with serially diluted test peptide before addition of the mixture to wells of the assay plate for 30 min. Wells were washed and then probed for bound LRP6 by addition of Qiagen penta His-HRP conjugate or Sigma anti-FLAG M2 HRP conjugate (1:2000 dilution in PBS, 0.2% BSA, 0.05% Tween-20) for 30 min. After washing, TMB substrate was added (Kirkegaard and Perry Laboratories). Wells were quenched with 1 M H3PO4 and plates read at 450 nm. […]

[2] = molecular target: T2, Dkk1 binding to LRP6 E1E2 (Homo sapiens, UniProt O75581); assay: Peptide inhibition of Dkk1 binding to LRP6 E1E2 (biolayer interferometry); conditions: peptide 20-fold higher than IC50; ligand three-fold higher than dissociation constant
T2 construct: construct E1E2-amino acids A20-E631 of LPR6; made in house; host or cells: Tni insect cells (baculovirus, secreted)
T2 sequence (O75581 20-631): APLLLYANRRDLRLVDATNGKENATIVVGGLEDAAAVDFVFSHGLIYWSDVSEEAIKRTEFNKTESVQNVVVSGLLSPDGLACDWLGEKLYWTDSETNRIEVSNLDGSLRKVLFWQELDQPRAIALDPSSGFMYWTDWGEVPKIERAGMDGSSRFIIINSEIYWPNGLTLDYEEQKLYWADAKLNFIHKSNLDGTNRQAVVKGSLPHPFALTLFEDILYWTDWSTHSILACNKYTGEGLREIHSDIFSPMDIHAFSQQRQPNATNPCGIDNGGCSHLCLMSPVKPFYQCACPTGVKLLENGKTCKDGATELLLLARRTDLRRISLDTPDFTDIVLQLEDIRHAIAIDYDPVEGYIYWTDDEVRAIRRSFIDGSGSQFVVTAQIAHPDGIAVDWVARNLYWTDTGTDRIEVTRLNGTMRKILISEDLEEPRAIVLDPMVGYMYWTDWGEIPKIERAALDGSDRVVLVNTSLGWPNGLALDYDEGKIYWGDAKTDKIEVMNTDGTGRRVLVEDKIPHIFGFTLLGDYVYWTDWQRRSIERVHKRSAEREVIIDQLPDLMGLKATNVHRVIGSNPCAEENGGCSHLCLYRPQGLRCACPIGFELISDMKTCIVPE
Description: (§1) FIG. 22. […] Binding was assessed by biolayer interferometry, as described in Example 1. Immobilized LRP6 E1E2 was exposed to protein ligand (Wnt 9b, Dkk1, or sclerostin) present in solution at a concentration three-fold higher than the measured dissociation constant for E1E2. Competing peptides were added at a saturating level (20-fold higher than the measured IC50 value). Peptide A: Ac-NSNAIKN-am; Peptide B: Ac-[…]-am (disulfide); Peptide C: Ac-[…]-am (disulfide)
(§2) Binding kinetics were measured by biolayer interferometry using an Octet Red instrument (ForteBio) as previously described (11). Streptavidin (SA) biosensors were loaded with biotinylated hLRP6 in 50 mMTris, pH 8, 300 mM NaCl, 5% (v/v) glycerol, and 0.05% (w/v) Triton X-100. The loaded biosensors were washed in the same buffer before carrying out association and dissociation measurements for the indicated times. The Kd of each interaction was determined using steady state-analysis through the Octet Red software v6.3. Each reported value represents an average of three or more experiments at different concentrations, with a fitted experimental curve for which the square of the correlation coefficient (R^2) is above 0.96.
(§3) To support the conclusions from protein mutagenesis, peptides were assayed for inhibitory activity toward binding of various ligands to LRP6. Three different peptides inhibited binding of the inhibitors Dkk1 and sclerostin to LRP6 E1E2 without affecting the binding of Wnt9B (FIG. 22).

[3] = molecular target: T3, sclerostin binding to LRP6 E1E2 (Homo sapiens, UniProt O75581); assay: Peptide inhibition of sclerostin binding to LRP6 E1E2 (biolayer interferometry); conditions: peptide 20-fold higher than IC50; ligand three-fold higher than dissociation constant
T3 construct: construct E1E2-amino acids A20-E631 of LPR6; made in house; host or cells: Tni insect cells (baculovirus, secreted)
T3 sequence (O75581 20-631): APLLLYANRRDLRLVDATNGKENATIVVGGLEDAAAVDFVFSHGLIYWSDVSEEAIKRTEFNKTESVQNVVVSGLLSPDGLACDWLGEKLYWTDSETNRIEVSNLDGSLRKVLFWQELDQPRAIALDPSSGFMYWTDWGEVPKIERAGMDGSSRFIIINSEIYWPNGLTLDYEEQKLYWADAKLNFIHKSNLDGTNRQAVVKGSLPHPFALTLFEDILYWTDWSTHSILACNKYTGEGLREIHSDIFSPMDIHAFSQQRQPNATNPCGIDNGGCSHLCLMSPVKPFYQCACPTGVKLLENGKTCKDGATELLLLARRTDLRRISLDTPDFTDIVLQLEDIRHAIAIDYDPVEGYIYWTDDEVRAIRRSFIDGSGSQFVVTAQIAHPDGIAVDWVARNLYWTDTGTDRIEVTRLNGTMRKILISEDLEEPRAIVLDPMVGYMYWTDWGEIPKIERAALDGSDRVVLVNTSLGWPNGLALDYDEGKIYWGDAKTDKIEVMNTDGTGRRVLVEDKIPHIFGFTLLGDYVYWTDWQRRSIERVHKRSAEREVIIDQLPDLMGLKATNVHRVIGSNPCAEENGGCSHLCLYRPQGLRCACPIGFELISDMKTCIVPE
Description: as §1, §2, §3

[4] = molecular target: T4, human LRP6 construct E1 (amino acids A20-D325) (human, UniProt O75581 20-325); assay: X-ray co-crystal structure
T4 construct: range 20-325; In the Fab crystal E1 arose from E1E2 degraded beyond Arg 335; residues Ala20 to Lys324 were traced; also called LRP6 E1; E1 domain
T4 sequence (looked up): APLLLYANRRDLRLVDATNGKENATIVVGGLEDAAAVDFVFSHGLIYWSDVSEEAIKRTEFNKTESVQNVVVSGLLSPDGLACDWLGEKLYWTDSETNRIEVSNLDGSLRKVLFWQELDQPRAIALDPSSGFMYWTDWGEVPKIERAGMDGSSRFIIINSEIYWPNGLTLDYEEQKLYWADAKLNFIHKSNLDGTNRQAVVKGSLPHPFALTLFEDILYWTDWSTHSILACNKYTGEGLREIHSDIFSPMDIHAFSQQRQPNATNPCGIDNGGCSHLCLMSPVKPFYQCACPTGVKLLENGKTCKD
Source text: The diffraction data were collected using a monochromatic X-ray beam (12398.1 eV) at the Advanced Light Source (ALS) beam line 5.0.2. The X-ray detection device was an ADSC quantum-210 CCD detector placed 350 mm away from the crystal. Alternatively, data were collected at Stanford Synchrotron Radiation Laboratory (SSRL71), Advanced Photon Souce (APS211DF), or in-house using a Rigaku X-ray generator model 007HF coupled to a Rigaku CCD camera (007HF/Saturn 944+). Prior to data collection, crystals were transferred into cryo-protective solutions containing 25% glycerol, followed by flash freezing in liquid nitrogen. Rotation method was applied to a single crystal for collection of the complete data set, with 1° oscillation per frame and total wedge size of 180°. The data were then indexed, integrated, and scaled using program HKL2000 (45). The LRP6 E1/Fab structure was phased by the molecular replacement (MR) method using program Phaser (CCP4, Daresbury, England). […] The search models of Fab subunits were derived from the crystal structure of an HGFA/Fab complex (46). The search model of the β-propeller domain was a homology model generated through the ESyPred3D web server (47); the structure of the extracellular domain of LDL receptor (48) was used as the homology modeling template. […] LRP6-peptide complex structures were determined by molecular replacement, using the LRP6E1 domain from the Fab complex as the search model. Peptides were built manually into the electron density. Manual rebuilding was done with the program COOT (49). Structure refinement was carried out with programs REFMAC5 (50) and PHENIX (51) using the maximum likelihood target functions, anisotropic individual B-factor refinement (peptide complexes only.

[5] = tested on: LRP6 E1E2 variants with LRP5 BMD substitutions; assay: Steady-state affinity for LRP6 E1E2 variants carrying LRP5 BMD substitutions; format: binding, human
Description: FIG. 13. Introduction of LRP5 BMD substitutions into LRP6 E1E2 lowers affinity for Wnt inhibitors. The five substitutions characterized are indicated on the y-axis. Steady-state affinity measurements were made for Wnt9b, Dkk1, and sclerostin binding to each of the LRP6 variants.
as §2
Cells transfected with LRP5 variants carrying BMD mutations show reduced binding to sclerostin and are less sensitive to sclerostin inhibition of Wnt10b or Wnt6 signaling (70). To further test the effects of the BMD substitutions, we introduced several of them into LRP6 E1E2, with the results shown in FIG. 13. LRP6 E1E2 Gly158Val could not be expressed in insect cells. […] Importantly, not only is the binding to sclerostin affected (70), but the binding of Dkk1 to its E1 interaction site is also impaired.

Molecule: CC[C@H](C)[C@@H]1NC(=O)[C@H](CO)NC(=O)[C@H](CC(N)=O)NC(=O)[C@H]([C@@H](C)O)NC(=O)[C@@H](NC(=O)[C@@H](N)CO)CSSC[C@@H](C(=O)N[C@@H](Cc2ccc(O)cc2)C(=O)NCC(=O)O)NC(=O)[C@H](CCC(N)=O)NC(=O)[C@@H]2CCCN2C(=O)[C@@H]2CCCN2C1=O [BBI mimetic] (H-SCTNSIPPQCYG-OH; disulfide 2-10; N-terminus and C-terminus assumed)
- binding / affinity for LRP6 E1 (in words) [1]: binds

Molecule: Ac-CNSIKFCG-am (disulfide) (Ac-CNSIKFCG-NH2; disulfide 1-7 (inferred)) [Peptide B]
- inhibition of Dkk1 binding to LRP6 E1E2 [2]: inhibit binding
- inhibition of sclerostin binding to LRP6 E1E2 [3]: inhibit binding

Molecule: Ac-GSLCSNRIKPDTHCSS-am (disulfide) (Ac-GSLCSNRIKPDTHCSS-NH2; disulfide 4-14 (inferred)) [Peptide C]
- inhibition of Dkk1 binding to LRP6 E1E2 [2]: inhibit binding
- inhibition of sclerostin binding to LRP6 E1E2 [3]: inhibit binding

Molecule: Ac-NSNAIKN-am (Ac-NSNAIKN-NH2) [Peptide A]
- inhibition of Dkk1 binding to LRP6 E1E2 [2]: inhibit binding
- inhibition of sclerostin binding to LRP6 E1E2 [3]: inhibit binding

Molecule: amide-cyclized variant of the Dkk1 7-mer peptide: Dkk1 7-mer with Ser2 substituted by Lys and Asn7 by Asp, side chains joined by an amide bond (NKNAIKD; lactam 2-7)
- binding / affinity for LRP6 E1 (in words) ([1]; listed as cyclized peptide): binds
- binding / affinity for LRP6 E1 (in words) ([1]; listed as target cyclic peptide): affinity equivalent to the parent Dkk1 peptide

B1: Ac-CNSIKLC-am (disulfide) (peptide)
peptide: Ac-CNSIKLC-NH2
modifications: disulfide 1-7 (inferred)
notes: also called CX5C class member of Exemplary Family 2
- binding result [4]: binds

B2: Ac-CNSIKCL-am (disulfide) (peptide)
peptide: Ac-CNSIKCL-NH2
modifications: disulfide 1-6 (inferred)
notes: also called CX4C class member of Exemplary Family 2
- binding result [4]: binds

B3: Ac-GSLCSNRIKPDTHCSS-am (disulfide) (peptide)
peptide: Ac-GSLCSNRIKPDTHCSS-NH2
modifications: disulfide 4-14 (inferred)
notes: also called Peptide C; CX9C class member of Exemplary Family 2
- binding result [4]: binds

B4: Ac-SNSIKFYA-am (peptide)
peptide: Ac-SNSIKFYA-NH2
notes: also called linear peptide from Exemplary Family 1; parent Ile peptide
- binding result [4]: binds

B5: Wnt9b: Wnt9b, carrier-free protein from R&D Systems (protein, UniProt O14905 23-357, looked up)
Protein Wnt-9b: SYFGLTGREVLTPFPGLGTAAAPAQGGAHLKQCDLLKLSRRQKQLCRREPGLAETLRDAAHLGLLECQFQFRHERWNCSLEGRMGLLKRGFKETAFLYAVSSAALTHTLARACSAGRMERCTCDDSPGLESRQAWQWGVCGDNLKYSTKFLSNFLGSKRGNKDLRARADAHNTHVGIKAVKSGLRTTCKCHGVSGSCAVRTCWKQLSPFRETGQVLKLRYDSAVKVSSATNEALGRLELWAPARQGSLTKGLAPRSGDLVYMEDSPSFCRPSKYSPGTAGRVCSREASCSSLCCGRGYDTQSRLVAFSCHCQVQWCCYVECQQCVQEELVYTCKH
- effect of LRP6 BMD mutations on binding to LRP6 E1E2 (in words) [5]: little to no effect
- change in affinity for the LRP6 E1E2 BMD variants compared to wild type ([5]; five substitutions characterized): ≤ 5 fold
